Our source for the amyloid nucleation score values is the supplement of paper PMC12042874.

± gives the uncertainty stated by the source.

A short description of the series: amyloid nucleation score (Sup35N fusion, yeast selection) (log enrichment); library NNK3; higher = more nucleation; inactive = no reads after selection. Put shortly: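 Sup35N was fused to peptides of 20 random codons and expressed in psi-negative yeast, which were induced with 100 μM copper sulfate for 24 hours and then grown on medium lacking adenine and uracil for 7 days at 30°C. Plasmid inserts from input and output were sequenced on Illumina. The nucleation score is the DiMSum log enrichment of output over input reads, centred on the mode score of non-aggregating sequences. Sequences with under 100 input reads were left out, and random libraries had three technical output replicates.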

For the substance SYSHYFILHHLRDSELSHCS, the amyloid nucleation score entry is “inactive”. Consider LVSVGSIVTSLEFNTGCLWA, for which the amyloid nucleation score result is “inactive”. Regarding NRTSLCKEDLVRVSFDGYLL, the amyloid nucleation score result was “inactive”. The same measure for LLLRLLAWYMMVS: “inactive”. Take LVKPNVDFVT: the amyloid nucleation score result is “inactive”. Next, TTRRVGCLMGFLVDFRIKSC: “inactive”. As for MSCYN, the amyloid nucleation score entry was “inactive”.

On to DPLILPIVVDRIVADDCYCQ, for which the amyloid nucleation score result was “inactive”. In the case of YSGLDSCVD, the amyloid nucleation score entry is “inactive”. For the substance WWHVIMYTGHKCNLSCDSVG, the amyloid nucleation score result was “inactive”. For VKWTQE, the amyloid nucleation score result is “inactive”. For LIFFWSIEA, the amyloid nucleation score result was “inactive”. On to NRCTCAV, for which the amyloid nucleation score result was “inactive”. For ACAFS, the amyloid nucleation score result is “inactive”. On to LHLHFAIKKLGLRLSTKWWV, for which the amyloid nucleation score result is “inactive”. The substance MNYVIIFTWN displayed an amyloid nucleation score of 2.76 ± 0.071. As to SAAGKQLKSRFIGRR, the amyloid nucleation score result was “inactive”. The same measure for CFPLSVK: “inactive”; for MMNSWDPVMLYSYGNTEVVH: “inactive”; for ELIAIRRSNFHKKFLLNLYC: “inactive”. Next, YCSIGLLCTSCIASVGIWVI: “inactive”. Turning to VMAHFWRGKLLRSYVDRWRG, the amyloid nucleation score entry is “inactive”. In the case of GPCFEVAVYYDATEMGKQSI, the amyloid nucleation score is -0.507 ± 1.1. The same measure for THHWKFGSNPSFR: “inactive”; for NSGAWLSMEMMPCRMSVYAC: “inactive”.

As for LLIGSGVSYFKTWFARHLTA, the amyloid nucleation score result is “inactive”. SNYICTYIQKFSIVYCIPSH showed an amyloid nucleation score of 1.96 ± 0.08. Consider CDWFILKA, for which the amyloid nucleation score entry was “inactive”.

As for STITYHLDIEVRKCWVFYMY, the amyloid nucleation score entry was “inactive”. Turning to LSTNTKSKTPYNVRMSLTGG, the amyloid nucleation score amounted to 0.49 ± 0.34. The same measure for HAAYGKCLQWFTRLVCYPVA: “inactive”. Consider FGYNYLCTFSFIISMVHVRF, for which the amyloid nucleation score entry is “inactive”.

For LFISFIVLRKALFTYTCLCF, the amyloid nucleation score entry was “inactive”. As for LLVWNLMTRFYYF, the amyloid nucleation score result was “inactive”. Regarding STRRILCIP, the amyloid nucleation score is -0.381 ± 0.8. Next, SSACISCYVSMLWYDVLFKV: 0.345 ± 0.23; TCLWARSPVLEDFEYGLHGS: “inactive”; HYFSYIINTAMMRKAYILSG: 0.543 ± 0.14. As for YHRTFWSFGSKVFLRVNWCR, the amyloid nucleation score result is “inactive”. Consider LLCIFDSRCERLNVLAFRYV, for which the amyloid nucleation score result was “inactive”. With KGGTLRRLTLSGTGTSQPSE, the amyloid nucleation score entry is “inactive”. On to PFSSGQSVEYL, for which the amyloid nucleation score result was “inactive”. With WVQPSYRPSCVLYRSNNNNR, the amyloid nucleation score entry was “inactive”. The same measure for FNWCWPISARAGELNLECWS: “inactive”; for PFENHSYVCSGSRYNGTLWE: “inactive”; for ITRGTYRSPFSFNTRFESGS: “inactive”.

As for KRTQDCMDRPRMLAAKASPS, the amyloid nucleation score entry is “inactive”. Consider NYEQCNSHSCMIFLFRTDYS, for which the amyloid nucleation score result was “inactive”. As to LSEFYPAMRSTTTPVQNVSG, the amyloid nucleation score result is “inactive”.

As for DLQLRNWCLWVSWWN, the amyloid nucleation score entry was “inactive”.

In turn, AFKNYVPMFTW came in with an amyloid nucleation score of -0.335 ± 0.73.

In the case of RTISGYSPSIVGQRDSRGFL, the amyloid nucleation score entry was “inactive”. As to AGSCVMFGPSW, the amyloid nucleation score entry was “inactive”. With GCNREGTYSRPVLTATNGG, the amyloid nucleation score is -0.152 ± 0.93. Next, FVHQRYRAQIIRLLPTSWGC: “inactive”; YNNTVCL: “inactive”. SCDNYVVLTHEFVLSHSKSL: the amyloid nucleation score turned out to be 1.01 ± 0.14. In the case of TLWYSYHINVPYCL, the amyloid nucleation score result is “inactive”. In the case of YLGRFNSKFMTSVLIMYYP, the amyloid nucleation score entry was “inactive”. Take LNLVRNWTISAAGKVALKWS: the amyloid nucleation score entry is “inactive”. Regarding IRGIVV, the amyloid nucleation score entry was “inactive”. As to RLLMKV, the amyloid nucleation score result was “inactive”. Next, GYVSALMMIFYYHLWKKGPC: “inactive”; RSQWLFISKKFDLAIYIAV: “inactive”; PLKTLFCSVLSCVIFLYLLM: “inactive”.

LKYNEKDPFECH came in with an amyloid nucleation score of -0.318 ± 0.42.

Turning to HYILLG, the amyloid nucleation score entry was “inactive”. LFVIKGENNSEEYTNVNFWR showed an amyloid nucleation score of 0.389 ± 0.23. Next, RYGIFMEHEIMYHLNPDGFY: “inactive”; YVRIQRMRFYSCEHWVHHIG: “inactive”. The same measure for KTMDPILQFFERSTASLLLI: “inactive”.

Turning to SPYTVQ, the amyloid nucleation score entry is “inactive”. In the case of VGLFRESPWEV, the amyloid nucleation score result was “inactive”.

For RFRMHIIYKRKGIACVRSTS, the amyloid nucleation score entry was “inactive”. Turning to CRSAVKMGVPLRILLMY, the amyloid nucleation score entry is “inactive”.

As to VMYWLYRINDSSQSFFSYFS, the amyloid nucleation score result is “inactive”. Consider CCSRACEFVAVKFNRSSYNL, for which the amyloid nucleation score entry is “inactive”. Consider FVTKRCFDMLF, for which the amyloid nucleation score entry was “inactive”.

As to LGVPSIPGT, the amyloid nucleation score result is “inactive”. As to PMHAIIKLYM, the amyloid nucleation score entry is “inactive”. For the substance FRQYHMRRVRLHGRRDVYGQ, the amyloid nucleation score result was “inactive”. For RGSKQLDWHSYYNRVLDIGR, the amyloid nucleation score is -0.296 ± 0.88. The substance SIEMRLCQDWTQLESLT yielded an amyloid nucleation score of -0.252 ± 0.66. For YSVNMLFAAS, the amyloid nucleation score result is “inactive”. As for TAQFDNSCSGLQHVVVNK, the amyloid nucleation score entry was “inactive”.

Consider VPNLEVSLKAFSSIVSFVRG, for which the amyloid nucleation score entry is “inactive”. Take RLSSLPHCVIM: the amyloid nucleation score entry was “inactive”. For the substance IDSNE, the amyloid nucleation score result was “inactive”. On to SLNNYFYSTNYETSFTLD, for which the amyloid nucleation score result is “inactive”.

Take ASLLLTYWVVTEVCRLDLGL: the amyloid nucleation score result is “inactive”.

As for SGLKVCYNYEDGRMVSLGYH, the amyloid nucleation score result is “inactive”. As for KRLTMDLFDNCPMLYECEFT, the amyloid nucleation score result is “inactive”.

Take KTISC: the amyloid nucleation score result is “inactive”. Turning to FYFMPNFV, the amyloid nucleation score entry was “inactive”. CRLELPMGSTTDDDRGQKVD gave an amyloid nucleation score of -0.014 ± 0.53.

In turn, FFPKWFCMTLLINDVGNHDM had an amyloid nucleation score of 0.921 ± 0.25. HVNSNPHVLASEVK: the amyloid nucleation score result was “inactive”. As to GVWRLATHGYSQ, the amyloid nucleation score entry was “inactive”. As for PQLLVSYYL, the amyloid nucleation score result is “inactive”. In the case of PHCVWDFLVRYGMDENRVKY, the amyloid nucleation score entry is “inactive”. Regarding LARDYSFATHSGLRRKSLKQ, the amyloid nucleation score result was “inactive”. In the case of STYRHLDRSL, the amyloid nucleation score result is “inactive”.

For the substance RWWTCSQSNSGVIFEQIYQT, the amyloid nucleation score result is “inactive”.

With FVYLSSKYIMSQMFKGKQMY, the amyloid nucleation score result is “inactive”. With VYCLRWKLYMLNEVS, the amyloid nucleation score entry is “inactive”.

In turn, KIFRIYICDCELYHTNGMWA gave an amyloid nucleation score of 1.56 ± 0.1. The same measure for THFNGEFWALSTVCMWGGRV: 0.06 ± 0.69. For FGRLTV, the amyloid nucleation score result is “inactive”. Regarding GFYAE, the amyloid nucleation score entry is “inactive”.

NRGSYVFMNRSEPVCSWISK yielded an amyloid nucleation score of 1.09 ± 0.1. For KVVARYRRKVCYNWHISEEK, the amyloid nucleation score result was “inactive”.

Consider KRDLSVIGKCTLNNVSNHCA, for which the amyloid nucleation score entry was “inactive”. With GNFMNNGRLVASPLLREVCC, the amyloid nucleation score result is “inactive”. Take RGTRTGPRDRTLFMSKAVRS: the amyloid nucleation score stood at 0.364 ± 0.39. TVRWDVSLMFMRPMMYGEPK registered an amyloid nucleation score of -0.13 ± 1.1.

In the case of RLLSAV, the amyloid nucleation score entry is “inactive”. Turning to RVDPTSRMSGIYHWILT, the amyloid nucleation score result was “inactive”.

For FNLSVINSRGQLECVLNPVK, the amyloid nucleation score result was “inactive”. As for YGPKV, the amyloid nucleation score entry is “inactive”. Next, TPCYRFNSRYRMTFM: “inactive”; IRLLATF: “inactive”; FNLFRNLIMGNCSALMMDQP: “inactive”. The same measure for NHWGSNWWLVYKVYSGGLLM: “inactive”; for RYFVT: “inactive”. Regarding SSSGY, the amyloid nucleation score is -0.007 ± 1.

For NEIQAYIRWSI, the amyloid nucleation score result was “inactive”.

ALNSLYTFMDRNNRELECGL registered an amyloid nucleation score of -0.688 ± 0.88.

Consider ACLYY, for which the amyloid nucleation score result is “inactive”.

As to VHFLILETFKQNMWGYDLTL, the amyloid nucleation score result is “inactive”.

The substance KMTFSWSLHHYCKP had an amyloid nucleation score of 1.08 ± 0.19. For KYLVALVRVRQSNLHS, the amyloid nucleation score entry was “inactive”.

With LMGKTHFLSVVWVVQVG, the amyloid nucleation score entry was “inactive”.

On to EAEGNINTRGTHRCLYGSFK, for which the amyloid nucleation score result is “inactive”.
